Target: T1, RNF31 PUB domain (Homo sapiens, UniProt Q96EP0)
T1 construct: MBP-TEV (N, cleaved yes); made in house; host or cells: E. coli BL21 (DE3) pLysS
T1 sequence (Q96EP0 1-179): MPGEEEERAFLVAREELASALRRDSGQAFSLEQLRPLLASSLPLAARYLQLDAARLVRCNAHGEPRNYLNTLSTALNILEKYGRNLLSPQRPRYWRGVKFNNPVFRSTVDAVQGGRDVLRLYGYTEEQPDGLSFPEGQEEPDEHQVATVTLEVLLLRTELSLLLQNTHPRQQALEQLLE
Test: Phage Library Screening with NGS, RNF31 PUB domain
Type: binding
Conditions: for Phage library screen NGS readout, Target Concentration 10 / Phage library screen NGS readout, Target Concentration 30 / Phage library screen NGS readout, Target Concentration 100 / Phage library screen NGS readout, Target Concentration 300 / Phage library screen NGS readout, Target Concentration 1000: RNF31 PUB domain clusters C41-C45; for Phage library screen NGS readout, BLANK: clusters C41-C45

[1] = target concentration 1000, first column
[2] = target concentration 1000, second column

Phage library screen NGS readout, Target Concentration 10 | Phage library screen NGS readout, Target Concentration 30 | Phage library screen NGS readout, Target Concentration 100 | Phage library screen NGS readout, Target Concentration 300 | Phage library screen NGS readout, Target Concentration 1000 [1] | Phage library screen NGS readout, Target Concentration 1000 [2] | Phage library screen NGS readout, BLANK (column 1 of 5) | Phage library screen NGS readout, BLANK (column 2 of 5) | Phage library screen NGS readout, BLANK (column 3 of 5) | Phage library screen NGS readout, BLANK (column 4 of 5) | Phage library screen NGS readout, BLANK (column 5 of 5) | Sequence
2 | 0 | 0 | 3 | 3 | 8 | 2 | 9 | 0 | 2 | 3 | DPAADDCEWAALYCSFH
0 | 0 | 0 | 4 | 26 | 17 | 0 | 0 | 0 | 0 | 0 | DPAADQCDIAAFVCSTY
0 | 4 | 0 | 12 | 46 | 67 | 0 | 0 | 0 | 0 | 0 | DPAAEDCHIAAMVCMTY
1 | 1 | 0 | 2 | 8 | 7 | 0 | 0 | 0 | 0 | 0 | DPAAWECHIAAFVCSTY
0 | 0 | 1 | 1 | 11 | 1 | 0 | 0 | 0 | 0 | 0 | DPADWDCMYAAQDCFED
0 | 0 | 0 | 1 | 7 | 6 | 0 | 0 | 0 | 0 | 0 | DPAEDECDWAALYCDMQ
1 | 3 | 0 | 7 | 19 | 6 | 1 | 0 | 0 | 0 | 1 | DPAEDECQDAAILCSYN
1 | 0 | 0 | 4 | 22 | 10 | 0 | 0 | 0 | 0 | 0 | DPAEDWCMYAAWDCQME
0 | 0 | 1 | 14 | 44 | 32 | 0 | 0 | 0 | 0 | 0 | DPAEEYCLEAAILCTYD
2 | 0 | 0 | 2 | 18 | 9 | 1 | 3 | 1 | 0 | 0 | DPAEQFCLYAAYDCYSE
2 | 2 | 0 | 3 | 15 | 7 | 0 | 0 | 0 | 0 | 0 | DPAEWDCLYAAFDCFAN
0 | 0 | 0 | 2 | 5 | 6 | 0 | 0 | 0 | 0 | 0 | DPAFAQCEVAAMVCTTY
1 | 0 | 0 | 3 | 31 | 12 | 0 | 0 | 0 | 0 | 1 | DPAFDWCLYAADDCAET
0 | 0 | 0 | 3 | 26 | 26 | 0 | 0 | 0 | 0 | 0 | DPAFHDCQFAAAVCSTY
0 | 0 | 0 | 2 | 8 | 8 | 0 | 1 | 1 | 0 | 0 | DPAFMDCVFAAAVCATY
0 | 0 | 0 | 6 | 9 | 5 | 0 | 0 | 0 | 0 | 4 | DPAFQFCVEAAVACSYY
0 | 0 | 3 | 31 | 161 | 145 | 1 | 2 | 0 | 0 | 0 | DPAFTDCQLAAAVCMTY
0 | 0 | 0 | 3 | 6 | 9 | 1 | 0 | 0 | 0 | 1 | DPAFWACLYAAEECVVD

Source: patent US20240376151A1, “STAPLED PEPTIDES AND METHODS THEREOF” (FOG PHARMACEUTICALS, INC., priority 2022, published 2024)
